Test [1] addresses YfiB^L43P (residues 34–168), purified alone (P. aeruginosa, UniProt Q9I4L6 34-168, L43P). Briefly: ITC.
The target of test [2] is YfiB^L43P/F57A (residues 34–168) (P. aeruginosa, UniProt Q9I4L6 34-168, L43P | F57A). Put plainly: ITC.

B1: YfiR (residues 35–190), purified alone (domain or fragment)
chain: DDARTSIEQRSNAVSQVLLGIFSYVRWPKEPAVLQLCVVGPTEYADGLLRGMVQANGRRVHAERRAVDNPDLGTLCNVIYLGVVDERERQQVFRSLAGHPVLSISERGTECSVGSMFCLNVGGPRITFEANLDSIARSGVRVHPSVLKLARRQATP
Turning to B1, the Ka was determined as 7.12e+06 M⁻¹ in test [1] and 1.87e+06 M⁻¹ in test [2].

Source of the values: publication PMC4887326 (2016).
